Measurements as given in paper PMC1919475.
Values belong to the substance of their own block, whether it stands above or below them.

Columns and labels:
[1] = biological target: ECFP-CSB expressed in CS1AN.S3.G2 cells (human) (UniProt Q03468); assay: co-IP
[2] = biological target: Cockayne syndrome B (CSB) protein, full-length, purified recombinant (human) (UniProt Q03468); assay: ELISA
[3] = biological target: APE1, major human apurinic/apyrimidinic (AP) endonuclease, full-length, purified recombinant (human) (UniProt P27695); assay: ELISA
[4] = biological target: APE1, endogenous in ECFP-CSB-CS1AN cell extracts (human (endogenous in CS1AN fibroblasts)) (UniProt P27695); assay: co-IP

percent co-immunoprecipitated [1]: 5 to 50%
Substance: APE1, endogenous in ECFP-CSB-CS1AN cell extracts (from UniProt P27695 1-318) (enzyme)

EC50 [2]: > 20 nM
Substance: APE1, major human apurinic/apyrimidinic (AP) endonuclease, full-length, purified recombinant (from UniProt P27695 1-318) (enzyme)

EC50 [3]: > 4.5 nM
Substance: Cockayne syndrome B (CSB) protein, full-length, purified recombinant (from UniProt Q03468 1-1493) (natural protein)

percent co-immunoprecipitated [4]: 5 to 50%
Substance: ECFP-CSB expressed in CS1AN.S3.G2 cells (from UniProt Q03468 1-1493) (natural protein)
